The values below are quoted from earlier work in publication PMC5956149.

For orientation: Kd means a measure of binding affinity in units of concentration.

The target of this data set is CheA (Escherichia coli) (UniProt P07363). The conditions noted are these: cited from earlier work.

As to CheA (from UniProt P07363), the Kd was 0.4 µM.
